We go through 13 molecules from article PMC6868513.

The target in one test is soluble Vγ4Vδ1 TCR. Nature of the test: flow cytometry on cells. As to conditions: anti-His mAb, read off a plot.
Test [1] addresses Soluble endothelial protein C receptor (EPCR) (UniProt Q9UNN8). As to the kind of experiment: SPR. As to conditions: parent: est. 1; read off a plot.
In test [2] the target is BTNL3 IgV domain (wild type) (UniProt Q6UXE8). As to the kind of experiment: SPR. The following applies: parent: est. 1; read off a plot.
In test [3] the target is BTNL3.8 heterodimer on 293T cells (human) (UniProt Q6UXE8).
In test [4] the target is LES Vγ4Vδ5 TCR, soluble, wild type (human). Nature of the test: SPR; BIAcore3000; biotinylated wt or mutant LES TCR (1000-3500 RU) captured on streptavidin-coated CM5 chip; analyte (BTNL3 or BTNL8 IgV, EPCR) 1-200 μM; HBS-EP; 25°C; equilibrium analysis. In general terms: SPR reads the build-up and loss of mass on a sensor chip optically.
For test [5] the target is unchanged. As to the kind of experiment: SPR; competition: wt EPCR (2500-3000 RU) immobilised on the chip; LES TCR injected at 12.5 μM with increasing BTNL3 IgV (3.5-113 μM) or BTNL8 IgV (2.2-70.5 μM); response as percent of that without competitor.
Test [6] shares this target. Nature of the test: SPR; BIAcore3000; biotinylated wt or mutant LES TCR (1000-3500 RU) captured on streptavidin-coated CM5 chip; analyte (BTNL3 or BTNL8 IgV, EPCR) 1-200 μM; HBS-EP; 25°C; equilibrium analysis. This is another data set of the same source.
Test [7] has the same target. As to the kind of experiment: ITC; iTC200; 20°C; 20mM Tris pH 8, 50 mM NaCl; TCR in the cell at 70 μM, BTNL3 at ten-fold higher concentration titrated as 20 × 2 μl injections; single independent binding site model. In general terms: Isothermal titration calorimetry measures the heat released or taken up as one component is titrated into another.
Where [8] appears, read: soluble Vγ4Vδ1 0.1 µg/ml (read from x axis), parent: est. 9.0.
Setting [9] is: soluble Vγ4Vδ1 10 µg/ml (read from x axis), parent: est. 31.
[10] abbreviates: soluble Vγ4Vδ1 about 2 µg/ml (read from x axis), parent: est. 16.

The term Kd denotes the free concentration of one partner at which half of the binding sites on the other are occupied at equilibrium, for simple one-to-one binding.

“And” between values parts separate entries of the source, which are not always exact repeats. Equal entries are not always repeated. Some results are limits rather than exact numbers.

Sequence of UniProt Q6UXE8 (Q6UXE8 whole entry, looked up, the tested form may be a part): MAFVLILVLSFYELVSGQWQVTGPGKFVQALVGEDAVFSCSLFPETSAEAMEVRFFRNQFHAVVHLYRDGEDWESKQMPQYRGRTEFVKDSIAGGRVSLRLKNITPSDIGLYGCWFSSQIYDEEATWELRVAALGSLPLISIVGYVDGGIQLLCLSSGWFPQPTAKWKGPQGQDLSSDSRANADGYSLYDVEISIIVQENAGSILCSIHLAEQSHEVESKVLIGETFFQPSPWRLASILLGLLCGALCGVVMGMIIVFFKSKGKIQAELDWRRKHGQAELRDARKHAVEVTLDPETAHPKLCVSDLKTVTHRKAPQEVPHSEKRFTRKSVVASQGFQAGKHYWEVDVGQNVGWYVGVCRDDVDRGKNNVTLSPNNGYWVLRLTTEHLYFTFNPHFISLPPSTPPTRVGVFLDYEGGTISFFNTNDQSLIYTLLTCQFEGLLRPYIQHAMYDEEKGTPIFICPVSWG
Sequence of UniProt Q9UNN8 (Q9UNN8 whole entry, looked up, the tested form may be a part): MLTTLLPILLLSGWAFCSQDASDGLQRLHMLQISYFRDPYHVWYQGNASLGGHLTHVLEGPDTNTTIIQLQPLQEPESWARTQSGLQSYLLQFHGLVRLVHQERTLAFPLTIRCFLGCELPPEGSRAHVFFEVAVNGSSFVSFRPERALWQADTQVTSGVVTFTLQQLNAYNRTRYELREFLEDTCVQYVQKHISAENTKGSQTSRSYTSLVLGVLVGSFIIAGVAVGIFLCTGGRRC

As for “BTNL3.8 heterodimer on 293T cells (from UniProt Q6UXE8;Q6UX41) EDWESK>KDQPFM (in BTNL3)”, the response (gMFI fold relative to ctrl) with soluble Vγ4Vδ1 TCR (setting [8]) was found to be 4.1; with soluble Vγ4Vδ1 TCR (setting [9]) it was 7.7; with soluble Vγ4Vδ1 TCR (setting [10]) it was 5.
In the same order, the values of “BTNL3.8 heterodimer on 293T cells (from UniProt Q6UXE8;Q6UX41) NQFHA>GQFSS (in BTNL3)” are 1.2, 1.2 and 1.4.
As to “LES Vγ4Vδ5 TCR, soluble, wild type γ:DSYT>KYSR (CDR2)”, the ratio to parent in test [1] was determined as 1.8; in test [2], 0.066.
As for “LES Vγ4Vδ5 TCR, soluble, wild type γ:EGST>AWRY (CDR1)”, the ratio to parent in test [1] amounted to 6.6; in test [2], 1.3.
Take “LES Vγ4Vδ5 TCR, soluble, wild type γ:…>ATWEG--YKKLF (CDR3, as aligned)”: the ratio to parent in test [2] was 0.72.
For the molecule “LES Vγ4Vδ5 TCR, soluble, wild type γ:…>… (HV4; D>Y; G>A)”, the ratio to parent in test [1] amounted to 0.53.
Consider “LES Vγ4Vδ5 TCR, soluble, wild type γ:…>… (HV4; K>N; M>L)”, for which the ratio to parent in test [1] came out at 1.4; in test [2] it was 0.38.
For “LES Vγ4Vδ5 TCR, soluble, wild type δ:NSMF>YRKS (CDR1)”, the ratio to parent in test [1] stood at 0.25; in test [2], 0.6.
On to “LES Vγ4Vδ5 TCR, soluble, wild type δ:RGYTG>EGSKW (CDR3)”, for which the ratio to parent in test [2] came to 0.3.
As for “LES Vγ4Vδ5 TCR, soluble, wild type δ:SSIK>RYRE (CDR2)”, the ratio to parent in test [1] worked out at 1; in test [2] it was 0.88.
“mo5 Vγ7Vδ2-2 TCR with the CDR2 and HV4 loops of human Vγ4, on Jurkat 76 cells” gave a CD69 expression on transduced J76 cells in response to BTNL3.8-expressing target cells, over control (flow cytometry) in test [3] above 3 fold. The molecule further showed a TCR downmodulation on transduced J76 cells after co-culture with 293T.L3L8 cells, against WT Vγ4 TCR transductants (flow cytometry) in test [3] (scale: % of the TCR downmodulation of WT Vγ4 TCR transductants) of 90.
“mo5 Vγ7Vδ2-2 TCR with the HV4 loop of human Vγ4, on Jurkat 76 cells” had a CD69 expression on transduced J76 cells in response to BTNL3.8-expressing target cells, over control (flow cytometry) in test [3] above 3 fold.

B1: BTNL3 IgV domain (wild type) (domain or fragment)
chain: QWQVTGPGKFVQALVGEDAVFSCSLFPETSAEAMEVRFFRNQFHAVVHLYRDGEDWESKQMPQYRGRTEFVKDSIAGGRVSLRLKNITPSDIGLYGCWFSSQIYDEEATWELRV
Consider B1, for which the Kd in test [4] was 22.1 µM and 20.9 µM; in test [6], 15 to 25 µM and 20.7 µM; in test [7] it was 3.5 µM. The molecule further registered a percent of LES TCR binding to EPCR left with the competitor in test [5] below 40%. For the same molecule, in test [7], the dH was -8.1 kcal/mol.
